{"source": "patent US20140363844", "proteins": {"B1": {"name": "Saponaria vaccaria PCY1 (recombinant, N-terminal His6-tag, expressed in E. coli from pCB008) (protein)", "chain": "MATSGFSKPLHYPPVRRDETVVDDYFGVKVADPYRWLEDPNSEETKEFVDNQEKLANSVLEECELIDKFKQKIIDFVNFPRCGVPFRRANKYFHFYNSGLQAQNVFQMQDDLDGKPEVLYDPNLREGGRSGLSLYSVSEDAKYFAFGIHSGLTEWVTIKILKTEDRSYLPDTLEWVKFSPAIWTHDNKGFFYCPYPPLKEGEDHMTRSAVNQEARYHFLGTDQSEDILLWRDLENPAHHLKCQITDDGKYFLLYILDGCDDANKVYCLDLTKLPNGLESFRGREDSAPFMKLIDSFDASYTAIANDGSVFTFQTNKDAPRKKLVRVDLNNPSVWTDLVPESKKDLLESAHAVNENQLILRYLSDVKHVLEIRDLESGALQHRLPIDIGSVDGITARRRDSVVFFKFTSILTPGIVYQCDLKNDPTQLKIFRESVVPDFDRSEFEVKQVFVPSKDGTKIPIFIAARKGISLDGSHPCEMHGYGGFGINMMPTFSASRIVFLKHLGGVFCLANIRGGGEYGEEWHKAGFRDKKQNVFDDFISAAEYLISSGYTKARRVAIEGGSNGGLLVAACINQRPDLFGCAEANCGVMDMLRFHKFTLGYLWTGDYGCSDKEEEFKWLIKYSPIHNVRRPWEQPGNEETQYPATMILTADHDDRVVPLHSFKLLATMQHVLCTSLEDSPQKNPIIARIQRKAAHYGRATMTQIAEVADRYGFMAKALEAPWID"}}, "key": {"[1]": {"target": "T1, Dianthus Precursor B[14,32]", "T1 chain": "GYKDCCVQAKDLENAAVPV"}, "[2]": {"target": "T2, Presegetalin A1[14,28]", "T2 chain": "GVPVWAFQAKDVENA"}, "[3]": {"target": "T3, Presegetalin A1[14,32] P16p W18A", "T3 chain": "GVPVAAFQAKDVENASAPV"}, "[4]": {"target": "T4, Presegetalin A1[14,32] ins 16A17", "T4 chain": "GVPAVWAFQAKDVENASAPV"}, "[5]": {"target": "T5, Presegetalin A1[14,32]P31A", "T5 chain": "GVPVWAFQAKDVENASAAV"}, "[6]": {"target": "T6, Presegetalin A1[14,32]V17v", "T6 chain": "GVPVWAFQAKDVENASAPV"}, "[7]": {"target": "T7, Presegetalin A1[14,32]V32A", "T7 chain": "GVPVWAFQAKDVENASAPA"}, "[8]": {"target": "T8, Presegetalin A1[14,32]W18w", "T8 chain": "GVPVWAFQAKDVENASAPV"}, "[9]": {"target": "T9, Presegetalin B1[14,31]", "T9 chain": "GVAWAFQAKDVENASAPV"}, "[10]": {"target": "T10, Presegetalin J1[14,36]", "T10 chain": "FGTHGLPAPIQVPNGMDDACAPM"}}, "data": [{"protein": "B1", "values": [{"measurement": "CP (cyclic peptide product detected by LC/MS)", "setting": "[1]", "value": "-"}, {"measurement": "LP (linear peptide product detected by LC/MS)", "setting": "[1]", "value": "-"}, {"measurement": "CP (cyclic peptide product detected by LC/MS)", "setting": "[2]", "value": "-"}, {"measurement": "LP (linear peptide product detected by LC/MS)", "setting": "[2]", "value": "+"}, {"measurement": "linear peptide formation (LC/MS, MS/MS)", "setting": "[2]", "value": "showed linear peptide formation almost equivalent to the linear peptide formed from the WT substrate (No. 1)"}, {"measurement": "CP (cyclic peptide product detected by LC/MS)", "setting": "[3]", "value": "+"}, {"measurement": "LP (linear peptide product detected by LC/MS)", "setting": "[3]", "value": "-"}, {"measurement": "CP (cyclic peptide product detected by LC/MS)", "setting": "[4]", "value": "+"}, {"measurement": "LP (linear peptide product detected by LC/MS)", "setting": "[4]", "value": "+"}, {"measurement": "CP (cyclic peptide product detected by LC/MS)", "setting": "[5]", "value": "+"}, {"measurement": "LP (linear peptide product detected by LC/MS)", "setting": "[5]", "value": "+"}, {"measurement": "linear segetalin A production relative to WT substrate", "setting": "[5]", "value": "showed a relative increase in production of linear segetalin A"}, {"measurement": "segetalin A production relative to WT substrate", "setting": "[5]", "value": "the P31A mutant (No. 24 in Table 3) was found to yield […]11 times less segetalin A than that produced from the WT substrate"}, {"measurement": "CP (cyclic peptide product detected by LC/MS)", "setting": "[6]", "value": "+"}, {"measurement": "LP (linear peptide product detected by LC/MS)", "setting": "[6]", "value": "-"}, {"measurement": "CP (cyclic peptide product detected by LC/MS)", "setting": "[7]", "value": "+"}, {"measurement": "LP (linear peptide product detected by LC/MS)", "setting": "[7]", "value": "+"}, {"measurement": "linear segetalin A production relative to WT substrate", "setting": "[7]", "value": "showed a relative increase in production of linear segetalin A"}, {"measurement": "CP (cyclic peptide product detected by LC/MS)", "setting": "[8]", "value": "+"}, {"measurement": "LP (linear peptide product detected by LC/MS)", "setting": "[8]", "value": "+"}, {"measurement": "conversion to cyclic peptide (LC/MS)", "setting": "[8]", "value": "the W18w mutant of presegetalin A1 was apparently relatively weakly converted to cyclic peptide"}, {"measurement": "CP (cyclic peptide product detected by LC/MS)", "setting": "[9]", "value": "+"}, {"measurement": "LP (linear peptide product detected by LC/MS)", "setting": "[9]", "value": "-"}, {"measurement": "CP (cyclic peptide product detected by LC/MS)", "setting": "[10]", "value": "+"}, {"measurement": "LP (linear peptide product detected by LC/MS)", "setting": "[10]", "value": "-"}]}]}
